Data as given in the supplement of paper PMC9876800.

System: peptide library, one residue held at a place counted from the S/T acceptor
Experiment: relative phosphorylation of the sub-library (ratio to the mean residue at this position); higher = residue favoured
Settings: human
Method in brief: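 Spots on streptavidin membranes were phosphorimaged and quantified by densitometry to measure phosphorylation of biotinylated degenerate peptide sub-libraries by purified recombinant kinases, human or orthologue constructs. The reactions ran in 384-well plates for 90 min under kinase-specific conditions, with peptides at 50 μM and 50 μM ATP spiked with γ-32P-ATP. Relative sub-library phosphorylation is the ratio to the mean residue at that position.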

Sequence of MYLK3, construct: aa490-end (Q32MK0 490-819, looked up): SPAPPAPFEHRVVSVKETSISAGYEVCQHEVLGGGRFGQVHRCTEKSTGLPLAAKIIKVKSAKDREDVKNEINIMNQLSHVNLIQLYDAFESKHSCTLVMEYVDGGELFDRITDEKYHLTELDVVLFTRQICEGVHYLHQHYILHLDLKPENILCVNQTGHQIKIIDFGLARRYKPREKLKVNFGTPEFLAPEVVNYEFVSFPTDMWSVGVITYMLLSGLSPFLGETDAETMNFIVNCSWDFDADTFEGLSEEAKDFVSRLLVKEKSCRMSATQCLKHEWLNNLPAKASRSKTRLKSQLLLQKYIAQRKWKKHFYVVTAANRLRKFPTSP
Sequence of CDK16, construct: aa107-end (Q00536 107-496, looked up): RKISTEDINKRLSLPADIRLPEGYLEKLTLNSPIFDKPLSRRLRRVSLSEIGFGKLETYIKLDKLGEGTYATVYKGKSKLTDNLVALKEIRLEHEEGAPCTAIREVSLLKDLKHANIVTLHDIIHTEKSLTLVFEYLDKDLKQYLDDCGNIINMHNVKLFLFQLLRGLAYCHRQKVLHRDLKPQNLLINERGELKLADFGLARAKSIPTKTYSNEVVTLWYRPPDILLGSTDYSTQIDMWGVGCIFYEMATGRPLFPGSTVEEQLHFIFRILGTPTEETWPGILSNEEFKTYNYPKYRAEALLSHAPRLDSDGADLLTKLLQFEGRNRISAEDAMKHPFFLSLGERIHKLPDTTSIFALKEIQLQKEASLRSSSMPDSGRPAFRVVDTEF

MAP2K2, construct: aa306-end (from UniProt P36507)
relative phosphorylation
Settings | at +1 | at +2 | at +3 | at +4 | at -1 | at -2 | at -3 | at -4 | at -5
A fixed | 0.617 | 1.06 | 0.962 | 0.933 | 0.978 | 0.833 | 1.06 | 0.961 | 1.08
D fixed | 1.32 | 0.532 | 0.643 | 0.706 | 0.63 | 0.982 | 0.744 | 1.13 | 1.01
E fixed | 0.689 | 0.364 | 0.589 | 0.62 | 0.606 | 0.819 | 0.803 | 1.01 | 0.781
F fixed | 1.49 | 0.907 | 1.05 | 0.995 | 1.19 | 2.06 | 1.51 | 1.05 | 0.965
G fixed | 0.624 | 0.787 | 1.22 | 1.08 | 1.35 | 0.713 | 0.737 | 1.14 | 1.07
H fixed | 0.836 | 3.02 | 1.3 | 1.08 | 1.01 | 2.51 | 0.945 | 1.04 | 0.996
I fixed | 1.55 | 0.963 | 1.02 | 0.968 | 0.735 | 0.626 | 1.18 | 0.808 | 0.73
K fixed | 0.453 | 0.771 | 0.833 | 0.882 | 1.03 | 0.674 | 0.649 | 0.799 | 1.01
L fixed | 1.46 | 0.795 | 0.981 | 0.927 | 1.49 | 0.763 | 1.4 | 0.984 | 0.789
M fixed | 1.89 | 1.13 | 0.865 | 0.862 | 1.32 | 1.09 | 1.58 | 1.05 | 0.943
N fixed | 0.537 | 0.756 | 0.744 | 0.755 | 0.696 | 0.768 | 0.63 | 0.921 | 0.962
P fixed | 0.347 | 0.681 | 0.947 | 1.02 | 0.494 | 0.46 | 0.691 | 0.857 | 1.11
Q fixed | 0.625 | 0.8 | 0.742 | 0.79 | 0.842 | 0.705 | 0.585 | 0.835 | 0.819
R fixed | 0.474 | 0.847 | 0.926 | 0.985 | 1.34 | 0.966 | 0.787 | 0.929 | 1.1
V fixed | 1.03 | 0.875 | 0.933 | 0.74 | 0.874 | 0.562 | 0.885 | 0.789 | 1.14
W fixed | 1.36 | 1.18 | 1.51 | 1.96 | 1.08 | 1.29 | 1.38 | 1.38 | 1.25
Y fixed | 1.7 | 1.54 | 1.73 | 1.69 | 1.34 | 1.18 | 1.44 | 1.31 | 1.25
pThr fixed | 0.823 | 0.505 | 0.611 | 0.607 | 0.404 | 0.431 | 0.575 | 0.741 | 0.914
pTyr fixed | 0.886 | 0.37 | 0.827 | 0.673 | 0.592 | 0.431 | 0.675 | 0.795 | 0.953

MYLK3, construct: aa490-end (from UniProt Q32MK0)
relative phosphorylation
Settings | at +1 | at +2 | at +3 | at +4 | at -1 | at -2 | at -3 | at -4 | at -5
A fixed | 0.997 | 0.992 | 0.828 | 1 | 0.944 | 0.927 | 0.967 | 1.04 | 0.985
D fixed | 0.753 | 0.819 | 0.786 | 0.983 | 0.851 | 0.585 | 0.67 | 0.758 | 0.72
E fixed | 0.833 | 0.958 | 0.758 | 1.01 | 0.799 | 0.585 | 0.667 | 0.836 | 0.722
F fixed | 0.951 | 1.06 | 1.43 | 1.02 | 0.964 | 0.641 | 0.71 | 0.904 | 0.919
G fixed | 0.937 | 0.89 | 0.861 | 1.04 | 0.913 | 0.788 | 0.879 | 1.01 | 0.982
H fixed | 0.922 | 0.995 | 0.943 | 1.07 | 1.03 | 1.09 | 0.884 | 0.976 | 0.987
I fixed | 1.1 | 1.19 | 0.997 | 1.03 | 0.971 | 0.656 | 0.748 | 0.936 | 1.09
K fixed | 1.25 | 0.972 | 0.81 | 0.941 | 1.09 | 1.44 | 1.41 | 1.42 | 1.29
L fixed | 0.938 | 1 | 1.2 | 1.04 | 1.24 | 0.653 | 0.711 | 0.918 | 0.983
M fixed | 1.18 | 1.02 | 0.953 | 0.932 | 1.2 | 0.711 | 0.756 | 0.991 | 1.04
N fixed | 0.961 | 0.863 | 0.839 | 0.93 | 1.07 | 0.737 | 0.717 | 0.867 | 0.813
P fixed | 0.786 | 0.899 | 0.876 | 1.18 | 0.956 | 0.778 | 0.933 | 1.01 | 1.11
Q fixed | 1.1 | 0.887 | 0.786 | 0.937 | 0.949 | 0.762 | 0.77 | 0.902 | 0.85
R fixed | 1.43 | 1.07 | 0.821 | 1 | 1.17 | 4.7 | 3.93 | 1.62 | 1.68
V fixed | 1.12 | 1.19 | 0.889 | 0.943 | 0.972 | 0.668 | 0.773 | 1.01 | 1.01
W fixed | 0.839 | 0.997 | 2.22 | 1.05 | 0.862 | 0.63 | 0.735 | 0.858 | 0.813
Y fixed | 0.908 | 1.19 | 1 | 0.902 | 1.02 | 0.647 | 0.729 | 0.938 | 1
pThr fixed | 1.12 | 1.06 | 0.774 | 1.08 | 0.769 | 0.637 | 0.724 | 0.809 | 0.728
pTyr fixed | 0.83 | 1.06 | 0.883 | 1.02 | 0.882 | 0.644 | 0.994 | 0.844 | 0.798

MTOR, construct: aa1362-end (from UniProt P42345)
relative phosphorylation
Settings | at +1 | at +2 | at +3 | at +4 | at -1 | at -2 | at -3 | at -4 | at -5
A fixed | 0.644 | 0.815 | 1.08 | 0.948 | 0.839 | 1.52 | 0.751 | 0.924 | 0.888
D fixed | 0.338 | 1.2 | 1.11 | 0.821 | 0.489 | 0.686 | 0.747 | 1.1 | 1.21
E fixed | 0.342 | 0.889 | 1.07 | 0.829 | 0.709 | 0.643 | 0.983 | 1.09 | 1.04
F fixed | 1.72 | 0.686 | 0.647 | 1.01 | 1.01 | 1.09 | 1.09 | 1.08 | 1
G fixed | 0.613 | 0.903 | 1.43 | 1.21 | 2.83 | 1.58 | 1.01 | 0.942 | 1.07
H fixed | 0.556 | 1.24 | 1.17 | 1.28 | 1.18 | 1.05 | 1.14 | 1.21 | 1.15
I fixed | 0.707 | 0.686 | 0.601 | 0.706 | 0.433 | 0.88 | 0.778 | 0.747 | 0.593
K fixed | 0.487 | 1.58 | 1.35 | 1.36 | 0.986 | 0.854 | 0.924 | 0.879 | 1.1
L fixed | 1.43 | 1.16 | 0.756 | 0.695 | 0.698 | 0.682 | 0.938 | 0.956 | 0.724
M fixed | 1.02 | 0.673 | 0.694 | 0.868 | 1.13 | 0.705 | 1.05 | 1.07 | 0.807
N fixed | 0.452 | 1.12 | 1.33 | 0.968 | 1.36 | 0.954 | 0.986 | 0.939 | 0.923
P fixed | 2.13 | 1.31 | 0.993 | 0.872 | 0.786 | 1.56 | 1.09 | 0.955 | 1.47
Q fixed | 0.561 | 0.83 | 0.942 | 0.92 | 1.15 | 0.838 | 0.949 | 0.953 | 0.862
R fixed | 0.506 | 1.7 | 1.2 | 1.2 | 1.15 | 0.973 | 1.1 | 1.02 | 1.04
V fixed | 0.816 | 0.728 | 0.675 | 0.7 | 0.482 | 0.985 | 0.795 | 0.708 | 0.745
W fixed | 1.99 | 0.643 | 0.99 | 1.41 | 0.721 | 1.05 | 1.2 | 1.3 | 1.36
Y fixed | 2.68 | 0.836 | 0.972 | 1.2 | 1.05 | 0.956 | 1.47 | 1.13 | 1.01
pThr fixed | 0.637 | 1.71 | 1.67 | 1.27 | 0.546 | 1.01 | 1.15 | 1.34 | 1.16
pTyr fixed | 1.06 | 0.721 | 1 | 0.941 | 0.841 | 1.27 | 1.66 | 1.37 | 1.21

CDK16, construct: aa107-end (from UniProt Q00536)
relative phosphorylation
Settings | at +1 | at +2 | at +3 | at +4 | at -1 | at -2 | at -3 | at -4 | at -5
A fixed | 0.223 | 0.675 | 0.758 | 0.72 | 1.18 | 1.28 | 1.24 | 0.912 | 1.03
D fixed | 0.152 | 0.587 | 0.335 | 0.457 | 0.539 | 0.439 | 0.692 | 0.863 | 0.745
E fixed | 0.15 | 0.385 | 0.316 | 0.305 | 0.491 | 0.464 | 0.839 | 0.817 | 0.699
F fixed | 0.155 | 0.368 | 1.03 | 0.593 | 0.499 | 0.512 | 0.478 | 0.455 | 0.542
G fixed | 0.947 | 0.572 | 0.702 | 1.38 | 2.12 | 0.887 | 2.02 | 0.951 | 0.854
H fixed | 0.218 | 1.25 | 0.82 | 1.16 | 0.92 | 0.797 | 1.27 | 1.08 | 1.68
I fixed | 0.147 | 0.455 | 0.842 | 0.588 | 0.26 | 0.834 | 0.433 | 0.852 | 0.625
K fixed | 0.253 | 3.26 | 0.872 | 2.54 | 1.37 | 0.617 | 0.915 | 2.31 | 2.51
L fixed | 0.177 | 1.05 | 2.59 | 0.679 | 0.582 | 1.18 | 0.93 | 1.15 | 1.16
M fixed | 0.168 | 0.663 | 1.97 | 0.757 | 0.722 | 1.12 | 0.666 | 0.755 | 0.722
N fixed | 0.225 | 1.17 | 0.964 | 1.09 | 1.16 | 1.08 | 1.19 | 1.78 | 1.42
P fixed | 13.1 | 0.696 | 1.45 | 0.842 | 1.77 | 3.72 | 1.93 | 1.11 | 0.908
Q fixed | 0.246 | 1.26 | 0.973 | 1.06 | 1.28 | 0.988 | 1.06 | 1.01 | 0.95
R fixed | 0.23 | 2.63 | 0.996 | 2.89 | 1.67 | 0.715 | 0.973 | 1.02 | 1.08
V fixed | 0.177 | 0.676 | 0.937 | 0.66 | 0.399 | 0.941 | 0.643 | 0.598 | 0.657
W fixed | 0.221 | 0.702 | 0.877 | 0.687 | 0.991 | 0.83 | 0.85 | 0.675 | 0.902
Y fixed | 0.17 | 0.608 | 0.564 | 0.587 | 1.04 | 0.588 | 0.871 | 0.653 | 0.509
pThr fixed | 0.435 | 0.648 | 0.998 | 0.332 | 0.397 | 0.764 | 0.87 | 0.767 | 0.657
pTyr fixed | 0.801 | 0.513 | 1.11 | 0.42 | 0.49 | 0.698 | 0.925 | 0.584 | 0.723
